{"source": "patent US20110124842A1", "about": "(priority 2003, published 2011)", "molecules": {"B1": {"name": "peptide 94-1, …-NH2 (peptide)", "peptide": "NWFDITNWLWYIKKKK-NH2"}, "B2": {"name": "peptide 84-1, …-NH2 (peptide)", "peptide": "NWFDITNWLWKKKK-NH2"}, "B3": {"name": "peptide …-NH2 (peptide)", "peptide": "SLWNWFDITNWLWYIKKKK-NH2"}}, "key": {"[1]": {"target": "recombinant gp41 (Example 2 ELISA) (HIV-1) (UniProt P04578)", "assay": "ELISA, Fab titrated on immobilized gp41"}, "[2]": {"target": "IgG 4E10", "assay": "Competitive ELISA (IC50): peptide competes with biotinylated 4E10-epitope peptide for IgG 4E10", "assay_type": "binding, human", "experimental": "IC50, were determined by competitive ELISA using a constant concentration of biotinylated peptide and IgG with a variable concentration of gp41 peptides. Microwells were coated overnight at 4° C. with 50 μl PBS containing neutravidin (Pierce; 4 μg/ml). […] A mixture of a biotinylated 4E10-epitope peptide, […](biotin)-NH2 (SEQ ID NO: 88) (20 nM), IgG 4E10 (0.2 nM), and the competing peptide analog (3-fold dilution series starting at 10 μM) in 0.4% non-fat dry milk, 0.02% Tween and PBS was incubated in a separate 96-well plate at 37° C. for 2 hours. After washing the blocked plate, the mixture of 4E10, biotinylated peptide and competing peptide was added to the wells. After 20 minutes at room temperature, the Wells were washed five times, and a 1:500 dilution of goat anti-human IgG F(ab′)2 HRP conjugate (Pierce) was added. Following incubation at RT for 40 minutes, the wells were washed five times, and developed by adding 50 μl of TMB solution (Pierce) according to the manufacturer's instructions. After ˜20 minutes, wells containing TMB solution were stopped by adding 50 μl of H2SO4 (2M) and the O.D. at 450 nm was read on a microplate reader (Molecular Devices). The concentration of competitor peptide corresponding to a half-maximal signal (IC50) was determined by interpolation of the resulting binding curve. Each peptide competitor was tested in duplicate in at least two separate experiments.\nIC50s were determined by competitive ELISA using a constant concentration of biotinylated peptide and IgG with a variable concentration of gp41 peptides. Microwells were coated overnight at 4° C. with 50 μl PBS containing neutravidin (Pierce; 4 μg/ml). […] Meanwhile, a mixture of a biotinylated 4E10-peptide epitope, […](biotin)-NH2 (SEQ ID NO: 88), (20 nM), IgG 4E10 (0.2 nM), and the competing peptide analogue (3-fold dilution series starting at 10 μM) in 0.4% NFDM, 0.02% Tween and PBS was incubated in a separate 96-well plate at 37° C. for 2 h. After washing the blocked plate, the mixture of 4E10, biotinylated peptide and competing peptide was added to the wells. After 20 min at room temperature, the wells were washed five times, and a 1:500 dilution of goat anti-human IgG F(ab′)2 HRP conjugate (Pierce) was added. Following incubation at RT for 40 min, the wells were washed five times, and developed by adding 50 μl of H2SO4 (2 M), and the O.D. at 450 nm was read on a microplate reader (Molecular Devices). The concentration of competitor peptide corresponding to a half-maximal signal (IC50) was determined by interpolation of the resulting binding curve. Each peptide competitor was tested in duplicate in at least two separate experiments."}, "[3]": {"assay": "Circular dichroism spectroscopy of free peptides in solution (helicity)", "assay_type": "physicochemical", "conditions": "FIG. 48", "experimental": "To determine whether the imposed constraints increased the helicity of the peptides, each one was analyzed in solution using circular dichroism (CD) spectroscopy (FIG. 48). An Aviv spectropolarimeter Model 203-02 was used, with cells of 0.1 cm in length, a wavelength step of 0.5 nm and a bandwidth of 1.0 nm. One to three scans were reported. The exact peptide concentrations were determined by UV measurements at 280 nm on a Gison UV detector, model 116."}, "[4]": {"target": "recombinant gp41 (Example 2 ELISA) (HIV-1) (UniProt P04578)", "assay": "direct ELISA, antigen coated on wells, 4E10 at 5 µg/ml"}, "[5]": {"target": "peptide 104-2, NWFc(CITO)WLWKKKK-NH2", "assay": "surface plasmon resonance and ELISA"}, "[6]": {"target": "peptide 94-1, …-NH2", "assay": "surface plasmon resonance and ELISA"}, "[7]": {"target": "peptide 33-1, NWFDITN-Aib-LWRR-NH2", "assay": "surface plasmon resonance and ELISA"}, "[8]": {"target": "peptide 104-2, NWFc(CITO)WLWKKKK-NH2", "assay": "surface plasmon resonance and ELISA (Table 7)"}, "[9]": {"target": "peptide 94-1, …-NH2", "assay": "surface plasmon resonance and ELISA (Table 7)"}, "[10]": {"target": "recombinant IgG1(kappa) 4E10", "sequence (heavy, as listed by the source)": "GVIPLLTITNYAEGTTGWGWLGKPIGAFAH", "assay": "competitive ELISA: gp41 against biotinylated …(biotin)-NH2 for IgG 4E10"}, "[11]": {"target": "recombinant IgG1(kappa) 4E10", "assay": "competitive ELISA; converted by the filing on the assumption of 25 kDa and a monomer"}, "[12]": {"target": "recombinant IgG1(kappa) 4E10", "assay": "cell-based or functional assay"}, "[13]": {"target": "Fab 4E10", "sequence (heavy, as listed by the source)": "as above", "assay": "SPR (Biacore 2000), Fab 4E10 on CM5 chip, peptide in flow"}, "[14]": {"target": "recombinant IgG1(kappa) 4E10", "assay": "competitive ELISA: peptide against biotinylated …(biotin)-NH2 for IgG 4E10"}, "[15]": {"target": "Fab 4E10", "assay": "SPR (Biacore 2000), Fab 4E10 on CM5 chip, peptide in flow", "remark": "listed apart in the source"}, "[16]": {"target": "recombinant IgG1(kappa) 4E10", "assay": "competitive ELISA for IgG 4E10"}, "[17]": {"target": "recombinant IgG1(kappa) 4E10", "assay": "competitive ELISA: peptide against biotinylated …(biotin)-NH2 (20 nM) for IgG 4E10 (0.2 nM)"}, "[18]": {"target": "recombinant IgG1(kappa) 4E10", "assay": "competitive ELISA, reference peptide of the alanine scan"}}, "note": "Like-named read-outs stand apart in the source and are kept apart here. Where no end group is shown, it is not given here.", "data": [{"molecule": "Fab 2F5", "values": [{"measurement": "EC50 (read off the curve)", "setting": "[1]", "value": 0.03, "unit": "µg/mL"}]}, {"molecule": "NWFDITNWLWYIKBKBKK-NH2 [Peptide 119]", "values": [{"measurement": "IC50 (4E10 binding, competitive ELISA)", "setting": "[2]", "value": "the same IC50"}, {"measurement": "IC50", "setting": "[2]; Table 6, constrained analogs, 4E10 binding, read-out: IC50", "value": 10, "unit": "nM"}, {"measurement": "helicity in solution by CD", "setting": "[3]", "value": "more helical 94-1"}]}, {"molecule": "recombinant IgG1(kappa) 4E10 (antibody)", "values": [{"measurement": "fold higher affinity than for the synthetic peptide (KGND)", "setting": "[4]", "value": 4, "unit": "fold"}, {"measurement": "fold higher affinity than for the original peptide KGND", "setting": "[5]", "value": 1000, "unit": "fold"}, {"measurement": "fold higher affinity than for the original peptide KGND", "setting": "[6]", "value": 1000, "unit": "fold"}, {"measurement": "fold higher affinity than for the original peptide KGND", "setting": "[7]", "value": 1000, "unit": "fold"}, {"measurement": "fold higher affinity than for peptide 33-1", "setting": "[8]", "value": 17, "unit": "fold"}, {"measurement": "fold higher affinity than for peptide 33-1", "setting": "[9]", "value": 17, "unit": "fold"}]}, {"molecule": "recombinant gp41 (residues 541-682 of HxB2; Viral Therapeutics, Inc.) (from UniProt P04578 541-682)", "values": [{"measurement": "IC50", "setting": "[10]", "value": 0.25, "unit": "µg/mL"}, {"measurement": "IC50", "setting": "[11]", "value": 10, "unit": "nM"}]}, {"molecule": "B1", "values": [{"measurement": "inhibition of 4E10 neutralization of replication competent HIV-1 SF162 and JR-CSF (TZM-bl cells, luciferase)", "setting": "[12]", "value": 30, "unit": "µg/mL"}, {"measurement": "Kd", "setting": "[13]", "value": 20, "unit": "nM"}, {"measurement": "koff", "setting": "[13]", "value": 0.0138, "unit": "s⁻¹"}, {"measurement": "kon", "setting": "[13]", "value": 691000, "unit": "M⁻¹ s⁻¹"}, {"measurement": "IC50", "setting": "[14]", "value": 10, "unit": "nM"}, {"measurement": "Kd", "setting": "[15]", "value": 18, "unit": "nM"}, {"measurement": "fold improvement of IC50 compared to KGND", "setting": "[16]", "value": "> 1000", "unit": "fold"}, {"measurement": "fold improvement of IC50 over the starting peptide (84-1)", "setting": "[16]", "value": 4, "unit": "fold"}]}, {"molecule": "B2", "values": [{"measurement": "IC50", "setting": "[17]", "value": 40, "unit": "nM"}, {"measurement": "Kd", "setting": "[15]", "value": 100, "unit": "nM"}]}, {"molecule": "B3", "values": [{"measurement": "IC50", "setting": "[18]", "value": 10, "unit": "nM"}]}]}
